The target in the assay is T1, LigB9-11 (Leptospira interrogans serovar …).
T1 construct: pET-20b(+) adds an initiating methionine and a C-terminal LEH6 tail; not shown: His6 (LEH6 tail), C-terminal, kept
The experiment in a line: ELISA; host protein (1 µg per well) immobilised in microtiter wells, blocked with 20 mg/mL BSA; recombinant LigB in 20 mg/mL BSA in PBS pH 7.2, 1 h at 37°C; bound LigB detected by its polyhistidine tag; apparent Kd from the LigB concentration at half-maximal binding. Conditions: both partners purified. In general terms: An ELISA detects its analyte on a solid surface through an enzyme-linked reagent.

B1: fibrinogen fragment D (complex)
chain 1: VSEDLRSRIEVLKRKVIEKVQHIQLLQKNVRAQLVDMKRLEVDIDIKIRSCRGSCSRALAREVDLKDYEDQQKQLEQVIAKDLLPSR
chain 2: DNENVVNEYSSELEKHQLYIDETVNSNIPTNLRVLRSILENLRSKIQKLESDVSAQMEYCRTPCTVSCNIPVVSGKECEEIIRKGGETSEMYLIQPDSSVKPYRVYCDMNTENGGWTVIQNRQDGSVDFGRKWDPYKQGFGNVATNTDGKNYCGLPGEYWLGNDKISQLTRMGPTELLIEMEDWKGDKVKAHYGGFTVQNEANKYQISVNKYRGTAGNALMDGASQLMGENRTMTIHNGMFFSTYDRDNDGWLTSDPRKQCSKEDGGGWWYNRCHAANPNGRYYWGGQYTWDMAKHGTDDGVVWMNWKGSWYSMRKMSMKIRPFFPQQ
chain 3: KMLEEIMKYEASILTHDSSIRYLQEIYNSNNQKIVNLKEKVAQLEAQCQEPCKDTVQIHDITGKDCQDIANKGAKQSGLYFIKPLKANQQFLVYCEIDGSGNGWTVFQKRLDGSVDFKKNWIQYKEGFGHLSPTGTTEFWLGNEKIHLISTQSAIPYALRVELEDWNGRTSTADYAMFKVGPEADKYRLTYAYFAGGDAGDAFDGFDFGDDPSDKFFTSHNGMQFSTWDNDNDKFEGNCAEQDGSGWWMNKCHAGHLNGVYYQGGTYSKASTPNGYDNGIIWATWKTRWYSMKKTTMKIIPFNRLTIGEGQQHHLGGAK
For B1, the Kd amounted to 26 nM.

The record behind these values is publication PMC3036719, “The Multifunctional LigB Adhesin Binds Homeostatic Proteins with Potential Roles in Cutaneous Infection by Pathogenic Leptospira interrogans” (PLoS ONE, 2011).
